Measured values reported in patent US6933284 (University of California, dated 2005).

Experiments:
[1] = biological target: T1, recombinant control LDL without the 'Leu-Leu' mutation (LDL generated by the unmodified apo-B100 P1 … (human, UniProt P04114 28-4563)); experiment: gel-mobility shift, data not shown
T1 construct: mature; Tested as an LDL particle
Protocol: (§1) Before the assay, the (^35S)biglycan and (^35S)versican preparations were dialyzed extensively at 4° C. against 10 mM HEPES, 150 mM NaCl, 5 mM CaCl_2, and 2 mM MgCl_2 (pH 7.4, Buffer A), and the protein concentrations were determined (BioRad Laboratories) with bovine gamma globulin as the standard. Increasing concentrations of LDL were incubated with approximately 2000 dpm of (^35S)biglycan or (^35S)versican for 1 h at 37° C. in a total volume of 20 μl of Buffer A. Three microliters of bromophenol blue:glycerol (1:1, v/v) was added to the samples, and 20 μl was loaded into wells of 0.7% NuSieve (FMC BioProducts) agarose gels prepared on Gel-Bond film (FMC BioProducts). Electrophoresis was run for 3 h at 60V with recirculating buffer (10 mM HEPES, 2 mM CaCl_2, 4 mM MgCl_2 pH 7.2) in a cold room. Gels were fixed with 0.1% cetyl pyridium chloride in 70% ethanol for 90 min, air-dried, and exposed to Hyper Film-MP (Amersham Life Sciences) at ^-70° C. The (^35S)biglycan or (^35S)versican complexed to LDL appears as a band at the […] with a Hewlett Packard Scan Jet II cx and ImageQuant software (Molecular Dynamics).
This procedure has the advantages that only microgram quantities of lipoproteins are required and the relative affinity of LDL binding to the proteoglycans can be determined at physiological ionic and pH conditions. […]

[2] = biological target: T2, RK3359-3369SA LDL (recombinant LDL, human apo-B100 with the arginines of Site B changed to serines and the … (human, UniProt P04114 28-4563)); experiment: gel-mobility shift, three independent experiments
T2 construct: mature; Tested as a purified LDL particle from transgenic mouse plasma; Q2153L follows from the statement that R3500Q is the only LDL without the 'Leu-Leu' mutation; also called recombinant LDL with the uncharged Site B
Protocol: as §1, with “The interaction between LDL and biglycan or versican was investigated by a gel-mobility shift assay (Camejo, G. et al. 1993. *J. Biol Chem.* 268:14131–14137). Before” for “Before”
(§2) This procedure has the advantages that only microgram quantities of lipoproteins are required and the relative affinity of LDL binding to the proteoglycans can be determined at physiological ionic and pH conditions. […] Of particular interest was that recombinant K3363E LDL interacted defectively with both versican and biglycan but had normal receptor binding.

[3] = biological target: T3, K3363E LDL (recombinant LDL, human apo-B100 with glutamic acid for lysine at residue 3363) (human, UniProt P04114 28-4563); experiment: gel-mobility shift, three independent experiments
T3 construct: mature; Tested as a purified LDL particle from transgenic mouse plasma
Protocol: as §1, with “The interaction between LDL and biglycan or versican was investigated by a gel-mobility shift assay (Camejo, G. et al. 1993. *J. Biol Chem.* 268:14131–14137). Before” for “Before”
as §2

human plasma LDL = biological target: T4, human plasma LDL (human, UniProt P04114 28-4563, 125I-labeled where used as tracer in the receptor assay); experiment: gel-mobility shift, three independent experiments
T4 construct: mature; Native LDL particle; also called normal human plasma LDL
Protocol: as §1, with “The interaction between LDL and biglycan or versican was investigated by a gel-mobility shift assay (Camejo, G. et al. 1993. *J. Biol Chem.* 268:14131–14137). Before” for “Before”
as §2

[4] = biological target: T5, recombinant control LDL (human apo-B100 with leucine in place of glutamine at position 2153) (human, UniProt P04114 28-4563); experiment: summary table, proteoglycan binding (biglycan and versican were the proteoglycans tested)
T5 construct: mature; one apo-B100 per particle, with lipid; also called wild-type recombinant LDL; 'Leu-Leu' apo-B100 LDL

[5] = biological target: T5, recombinant control LDL (human apo-B100 …); experiment: summary table, LDL receptor binding
[6] = biological target: T3, K3363E LDL (recombinant LDL, human …); experiment: summary table, LDL receptor binding
[7] = biological target: T1, recombinant control LDL without the …; experiment: receptor-binding activity, details not given

Measured: binding result

B1: (35S)biglycan from cultured human arterial smooth muscle cells (other, UniProt P21810 38-368, looked up)
chain: DEEASGADTSGVLDPDSVTPTYSAMCPFGCHCHLRVVQCSDLGLKSVPKEISPDTTLLDLQNNDISELRKDDFKGLQHLYALVLVNNKISKIHEKAFSPLRKLQKLYISKNHLVEIPPNLPSSLVELRIHDNRIRKVPKGVFSGLRNMNCIEMGGNPLENSGFEPGAFDGLKLNYLRISEAKLTGIPKDLPETLNELHLDHNKIQAIELEDLLRYSKLYRLGLGHNQIRMIENGSLSFLPTLRELHLDNNKLARVPSGLPDLKLLQVVYLHSNNITKVGVNDFCPMGFGVKRAYYNGISLFNNPVPYWEVQPATFRCVTDRLAIQFGNYKK
modifications: glycosaminoglycan chains metabolically labeled with (35S)SO4
notes: Proteoglycan: core protein with glycosaminoglycan chains; also called pool 3
binds: [1] | [2] | [3] | human plasma LDL | [4]

B2: LDL receptor on normal human fibroblasts (receptor)
chain: not shown
notes: whole, on cells; also called LDL receptors
binds: [5] | [6] | [7]
